Test results as given in patent publication US20240392013A1 (STELEXIS THERAPEUTICS, published 2024).

Key:
[1] = target: T1, cyIL1RAP-His (Lake Pharma) (cynomolgus monkey, UniProt A0A2K5X5J5 21-367); test: Octet BLI; mAb captured on anti-mouse IgG Fc sensor; cyIL1RAP-His analyte
T1 construct: Bought protein (Lake Pharma, lot 16205819371); also called cynomolgus IL1RAP; monkey IL1RAP; not shown: His tag
T1 sequence: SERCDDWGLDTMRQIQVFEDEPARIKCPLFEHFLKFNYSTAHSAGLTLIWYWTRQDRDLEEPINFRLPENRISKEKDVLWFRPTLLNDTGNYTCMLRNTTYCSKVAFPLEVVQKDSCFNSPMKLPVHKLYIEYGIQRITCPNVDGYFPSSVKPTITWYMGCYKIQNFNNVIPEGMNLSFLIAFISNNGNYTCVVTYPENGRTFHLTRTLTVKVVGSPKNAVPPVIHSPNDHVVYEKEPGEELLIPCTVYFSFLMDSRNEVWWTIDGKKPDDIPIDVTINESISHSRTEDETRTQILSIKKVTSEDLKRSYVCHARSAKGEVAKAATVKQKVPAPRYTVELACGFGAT
Protocol: (§1) Antibodies were diluted in kinetics buffer (0.1% BSA, 0.02% Tween-20 and 0.05% NaN₃ in PBS) and loaded onto 16 channel anti-mouse IgG Fc capture sensors (AMC, Cat #2001073; Sartorius, Göttingen, Germany). Human, huIL1RAP-His (Sino Biological, lot: MB08MA1301), and monkey, cyIL1RAP-His (Lake Pharma, NY, USA; lot:16205819371) proteins were titrated starting from the highest concentration of 100 nM and followed by 50 nM and 25 nM. Purified antibodies were loaded at 5 μg/ml in kinetics buffer. The experimental parameters selected to determine the kinetic constants were Baseline for 60 s, Loading of antibody to sensor for 180 s, Association of analyte to antibody for 120 s, Dissociation for 1200 s and Regeneration in 10 mM Glycine pH 1.7 for 4×30 s.
(§2) Regeneration cycle tracking was selected for 12 cycles. Binding to human and cynomolgus IL1RAP was measured and KD (M) kinetics were calculated. Also, the disassociation rate (Kdis) (1/s) and association rate (Kon) (1/Ms) kinetics were calculated (data not shown).

[2] = target: T2, IL1RAP on HEK-Blue IL1β / HEK-Blue IL33 reporter cells (UniProt Q9NPH3 21-570, limits assumed); test: cell-based or functional assay
T2 sequence (looked up): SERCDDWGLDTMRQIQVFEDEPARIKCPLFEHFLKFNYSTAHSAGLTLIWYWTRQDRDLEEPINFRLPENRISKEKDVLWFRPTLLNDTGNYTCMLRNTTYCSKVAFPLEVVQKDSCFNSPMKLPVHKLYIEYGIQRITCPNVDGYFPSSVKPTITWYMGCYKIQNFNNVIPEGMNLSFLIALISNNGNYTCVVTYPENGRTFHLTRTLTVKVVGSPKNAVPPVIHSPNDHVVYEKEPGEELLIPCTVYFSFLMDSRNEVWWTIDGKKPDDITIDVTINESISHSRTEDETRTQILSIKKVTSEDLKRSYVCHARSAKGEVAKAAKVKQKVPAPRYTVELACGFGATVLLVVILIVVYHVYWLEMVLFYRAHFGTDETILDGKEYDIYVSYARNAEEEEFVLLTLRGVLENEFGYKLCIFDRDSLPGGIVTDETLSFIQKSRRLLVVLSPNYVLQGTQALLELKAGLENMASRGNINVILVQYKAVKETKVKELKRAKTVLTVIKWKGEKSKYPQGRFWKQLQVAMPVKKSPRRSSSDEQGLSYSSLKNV

[3] = target: T2, IL1RAP on HEK-Blue IL1β / HEK-Blue IL33 …; test: cell-based or functional assay; remark: listed apart in the source
[4] = target: T3, recombinant mouse IL1RAP protein (Sino Biological, Cat #52657-M08H) (mouse, UniProt Q61730 21-359); test: cell-free ELISA, mouse IL1RAP coated; data not shown
T3 construct: Bought protein
T3 sequence (looked up): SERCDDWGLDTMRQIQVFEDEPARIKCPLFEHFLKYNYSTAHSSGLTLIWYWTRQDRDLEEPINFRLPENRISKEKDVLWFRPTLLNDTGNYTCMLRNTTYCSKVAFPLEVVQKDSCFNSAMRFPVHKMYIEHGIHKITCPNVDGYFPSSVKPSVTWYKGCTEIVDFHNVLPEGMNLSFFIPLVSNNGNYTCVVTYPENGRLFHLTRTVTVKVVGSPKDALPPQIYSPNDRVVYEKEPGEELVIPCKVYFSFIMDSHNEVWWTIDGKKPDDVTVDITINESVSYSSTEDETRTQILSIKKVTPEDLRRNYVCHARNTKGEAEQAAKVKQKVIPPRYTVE
Protocol: Recombinant human or mouse IL1RAP proteins (Sino Biological, Beijing, China; Cat #10121-H08H and Sino Biological, Cat #52657-M08H respectively) were diluted in PBS, pH 7.4 at concentration of 1 μg/ml, coated on high-binding 384-well clear plates and incubated overnight at 4° C. Following, plates were washed 3× with 0.05% Tween-20 in PBS, pH 7.5 and then blocked with 1% BSA in PBS for 1 hour at room temperature. After 3× washes, wells were incubated with each antibody at the highest concentration of 100 nM followed by seven serial half log dilutions (in 1% BSA and 0.05% Tween-20 in PBS) for 1 hour at room temperature. Plates were then washed 3× and incubated with […] detection antibody (Medna, TX, USA; Cat #D8212, 0.5 μg/ml diluted in 0.02% Tween-20 in PBS). After 5× washes, Supersignal ELISA Pico substrate (Thermofisher, MA, USA; Cat #37069) was applied to wells and chemiluminescent signal was read on Sprectramax L for 200 ms/well. Similarly, detection with specific κ and λ antibodies was conducted to define light chain isotyping.

[5] = target: T4, recombinant human IL1RAP protein, extracellular domain His-tagged (Sino Biological, Cat #10121-H08H) (human, UniProt Q9NPH3 21-367); test: Octet BLI; mAb captured on anti-mouse IgG Fc sensor; huIL1RAP-His analyte
T4 construct: extracellular domain; Bought protein; The Octet analyte is printed as huIL1RAP-His (Sino Biological, lot MB08MA1301) without a catalogue number; also called huIL1RAP-His; hIL1RAP; not shown: His tag
T4 sequence (looked up): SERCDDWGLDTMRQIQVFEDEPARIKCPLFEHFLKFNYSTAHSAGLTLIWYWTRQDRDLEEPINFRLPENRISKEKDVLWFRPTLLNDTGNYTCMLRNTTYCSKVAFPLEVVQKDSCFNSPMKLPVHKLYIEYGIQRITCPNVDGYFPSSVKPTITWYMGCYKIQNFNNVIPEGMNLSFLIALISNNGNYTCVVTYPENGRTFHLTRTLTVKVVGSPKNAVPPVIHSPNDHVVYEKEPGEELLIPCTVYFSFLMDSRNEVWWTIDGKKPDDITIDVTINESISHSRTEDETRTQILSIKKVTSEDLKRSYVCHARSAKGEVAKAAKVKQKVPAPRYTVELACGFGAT
Protocol: as §1, §2

| Binder | Kd [1] [nM] | Response [1] | koff [1] [s⁻¹] | kon [1] [M⁻¹ s⁻¹] | IC50, HEK-BlueIL33 NFκB Reporter Assay [2] | Max % Inhibition at 200 nM, HEK-BlueIL33 NFκB Reporter Assay [2] [%] | IC50, HEK-BlueIL1β NFκB Reporter Assay [3] | Max % Inhibition at 200 nM, HEK-BlueIL1β NFκB Reporter Assay [3] [%] | binding result [4] | Kd [5] [nM] | Response [5] | koff [5] [s⁻¹] | kon [5] [M⁻¹ s⁻¹] |
| --- | --- | --- | --- | --- | --- | --- | --- | --- | --- | --- | --- | --- | --- |
| STLX2051 (antibody, V domains shown, Purified from hybridoma of immunized Alivamab mice; intact IgG; captured on anti-mouse IgG Fc sensors in Octet; kappa light chain; also called 74804_51C10A) VH: QVQLLQSGAEVKKPGSSVKVSCKASGGTFNIYAIDWVRQAPGQGLEWMGGIIPIFGTANSAQKFQGRVTITADKSTNTAYMELSSLRSEDTAVYYCARNGATSDAFDIWGQGTMVTVSS VL: EIVLTQSPGTLSLSPGERATLSCRASQSVSSNYLAWFQQRPGQAPRLLIYGVSRRATGIPDRFSGSGSGTDFTLTISRLEPEDFAVYYCQQYGSSPLTFGGGTKVEIK | 1.41 | 0.265 | 0.000459 | 326000 | 1.3e-08 M (implied; unit not printed) | 77 | 2.5e-09 M (implied; unit not printed) | 99 | no binding (tested: 100 nM) | 0.875 | 0.237 | 0.000301 | 344000 |
| STLX2025 (antibody, V domains shown, Purified from hybridoma of immunized Alivamab mice; intact IgG; captured on anti-mouse IgG Fc sensors in Octet; kappa light chain; also called 74804_25H09A) VH: QVQLVQSGAEVKKPGSSVKVSCKASGDTFSNYAITWVRQAPGQGLEWIVGFSPIFGTANYAQKFQGRVTITADKSTSTAYMELSSLISEDTAVYYCAWGSGNFNWFDPWGQGTLVTVSS VL: AIRMTQSPSSFSASTGDRVTITCRASQGISSYLAWYQQKPGKAPKLLIYAASTLQSGVPSRFSGSGSGTDFTLTISSLQSEDFATYYCQQYYSYPLTFGGGTKVEIK | 2.09 | 0.263 | 0.000297 | 142000 | 6.55e-09 M (implied; unit not printed) | 73 | 1.77e-09 M (implied; unit not printed) | 100 | no binding (tested: 100 nM) | 2.18 | 0.26 | 0.000337 | 154000 |
| STLX2001E (antibody, V domains shown, Purified from hybridoma of immunized Alivamab mice; intact IgG by SEC and SDS-PAGE; captured on anti-mouse IgG Fc sensors in Octet; kappa light chain; also called 74804_01E23A) VH: QVQLVQSGAEVKKPGASVKVSCKASGYTFTGYYMHWVRQAPGQGLEWMGWLNPNSGGTDYVQKFQGRVTMTRDTSISTAYMELSRLRSDDTAVYYCARTLYYYGMDVWGQGTTVTVSS VL: not shown | 4.54 | 0.265 | 0.000863 | 190000 | 2.49e-09 M (implied; unit not printed) | 80 | 7.37e-10 M (implied; unit not printed) | 98 | no binding (tested: 100 nM) | 2.34 | 0.308 | 0.000391 | 167000 |
